First the molecules themselves.
B1: IQGAP2 GTPase-activating protein (GAP)-related domain (residues 875-1257) (domain or fragment, human)
chain: GAMSKERRKTLETYQQLFYLLQTNPLYLAKLIFQMPQNKSTKFMDTVIFTLYNYASNQREEYLLLKLFKTALEEEIKSKVDQVQDIVTGNPTVIKMVVSFNRGARGQNTLRQLLAPVVKEIIDDKSLIINTNPVEVYKAWVNQLETQTGEASKLPYDVTTEQALTYPEVKNKLEASIENLRRVTDKVLNSIISSLDLLPYGLRYIAKVLKNSIHEKFPDATEDELLKIVGNLLYYRYMNPAIVAPDGFDIIDMTAGGQINSDQRRNLGSVAKVLQHAASNKLFEGENEHLSSMNNYLSETYQEFRKYFKEACNVPEPEEKFNMDKYTDLVTVSKPVIYISIEEIISTHSLLLEHQDAIAPEKNDLLSELLGSLGEVPTVESFLGEG
B3: IQGAP1 GTPase-activating protein (GAP)-related domain (residues 962-1345) (domain or fragment)
chain: GAMSKEKREKLEAYQHLFYLLQTNPTYLAKLIFQMPQNKSTKFMDSVIFTLYNYASNQREEYLLLRLFKTALQEEIKSKVDQIQEIVTGNPTVIKMVVSFNRGARGQNALRQILAPVVKEIMDDKSLNIKTDPVDIYKSWVNQMESQTGEASKLPYDVTPEQALAHEEVKTRLDSSIRNMRAVTDKFLSAIVSSVDKIPYGMRFIAKVLKDSLHEKFPDAGEDELLKIIGNLLYYRYMNPAIVAPDAFDIIDLSAGGQLTTDQRRNLGSIAKMLQHAASNKMFLGDNAHLSIINEYLSQSYQKFRRFFQTACDVPELQDKFNVDEYSDLVTLTKPVIYISIGEIINTHTLLLDHQDAIAPEHNDPIHELLDDLGEVPTIESLIGESS

The data set “crystal structure” concerns the molecule itself. The data set can be described thus: crystal structure.
Data set [1] concerns the target human hydrolase deficient (Q61L) Rac1 (residues 1-177), GTP-bound (human, UniProt P63000 1-177, Q61L). Description: ITC.
Data set [2] addresses B3. The data set can be described thus: ITC.
The target in data set [3] is B1. The data set can be described thus: ITC.
The target of data set [4] is B1. Description: crystal structure.

These results are taken from PMC5014685 (Structure (London, England : 1993), 2016).

As for B1, the “stoichiometry N” value in the data set “crystal structure” was found to be 2. Further, the binding result in data set [1] is “binds”.

B2: GRD2 6xAla mutant (N924A, N928A, Q929A, R930A, E931A, S1204A) (domain or fragment)
chain: GAMASKERRKTLETYQQLFYLLQTNPLYLAKLIFQMPQNKSTKFMDTVIFTLYAYASAAAAEYLLLKLFKTALEEEIKSKVDQVQDIVTGNPTVIKMVVSFNRGARGQNTLRQLLAPVVKEIIDDKSLIINTNPVEVYKAWVNQLETQTGEASKLPYDVTTEQALTYPEVKNKLEASIENLRRVTDKVLNSIISSLDLLPYGLRYIAKVLKNSIHEKFPDATEDELLKIVGNLLYYRYMNPAIVAPDGFDIIDMTAGGQINSDQRRNLGSVAKVLQHAASNKLFEGENEHLSSMNNYLSETYQEFRKYFKEACNVPEPEEKFNMDKYTDLVTVAKPVIYISIEEIISTHSLLLEHQDAIAPEKNDLLSELLGSLGEVPTVESFLGEG
Turning to B2, the binding result in data set [1] was “binds”.
As for B3, the binding result in data set [1] was “binds”.

B4: human hydrolase deficient (Q61L) Cdc42 (residues 1-177), GTP-loaded (domain or fragment)
chain: not shown
B4: the “stoichiometry N” value was 2 Cdc42 per GRD in data set [2], 2 Cdc42 per GRD in data set [3] and 2 Cdc42 per GRD2 in data set [4].

B5: GRD1 6xAla mutant (N1011A, N1015A, Q1016A, R1017A, E1018A, T1291A) (domain or fragment)
chain: GAMASKEKREKLEAYQHLFYLLQTNPTYLAKLIFQMPQNKSTKFMDSVIFTLYAYASAAAAEYLLLRLFKTALQEEIKSKVDQIQEIVTGNPTVIKMVVSFNRGARGQNALRQILAPVVKEIMDDKSLNIKTDPVDIYKSWVNQMESQTGEASKLPYDVTPEQALAHEEVKTRLDSSIRNMRAVTDKFLSAIVSSVDKIPYGMRFIAKVLKDSLHEKFPDAGEDELLKIIGNLLYYRYMNPAIVAPDAFDIIDLSAGGQLTTDQRRNLGSIAKMLQHAASNKMFLGDNAHLSIINEYLSQSYQKFRRFFQTACDVPELQDKFNVDEYSDLVTLAKPVIYISIGEIINTHTLLLDHQDAIAPEHNDPIHELLDDLGEVPTIESLIGESS
In the case of B5, the binding result in data set [1] is recorded as “binds”.
